According to patent US20250283065A1, “TRUNCATED POLYPEPTIDES HAVING PROTEIN LIGASE ACTIVITY AND METHODS OF PRODUCTION THEREOF” (NANYANG TECHNOLOGICAL UNIVERSITY, priority 2022, published 2025):

What was measured:
OaAEP1b-C247A-Δ351 = test: Active site titration by FRET ligation assay with covalent inhibitor; type: biochemical, Oldenlandia affinis; conditions: 1 hour incubation with Ac-YVAD-cmk, enzyme 280 nM
Protocol: Active site titration: The procedure described in reference was followed. The enzyme preparation was diluted to a concentration of 280 nM using a buffer containing 20 mM sodium phosphate at pH 6.5, 5 mM 2-Mercaptoethanol. Solutions containing serial twofold dilution of inhibitor YVAD-cmk were prepared in a black microtiter plate (Greiner Bio-One) using buffer as diluent. The enzyme was subsequently added to the wells containing the inhibitor to a final volume of 50 μL. The plate was incubated for 1 hour at room temperature before adding FRET peptides (PIE {EDANS} YNAL (SEQ ID NO:18) and GIK {DABSYL} SIP (SEQ ID NO: 19)), which were mixed at a molar ratio of 1:3 giving a final enzyme: substrate molar ratio of 1:200. The EDANS fluorescence signal was measured with an excitation wavelength of 336 nm and an emission wavelength of 490 nm. Relative fluorescence units (RFU) of quenched EDANS signal were plotted against time. The value of the initial velocity (Vi) was determined from the slope of the RFU (t) curve. The measured value of Vi was subsequently normalized by dividing with the initial rate obtained in the absence of inhibitor (control V0). The calculated Vi/V0 ratio was plotted against inhibitor concentrations, generating an inhibition curve. […]

[1] = test system: linear NH2-GLPVSTKPVATRNAL-COOH peptide substrate; test: Peptide cyclization assay (MALDI-TOF MS); type: biochemical; conditions: 37° C., after twelve minutes of reaction time
Target sequence (as listed by the source): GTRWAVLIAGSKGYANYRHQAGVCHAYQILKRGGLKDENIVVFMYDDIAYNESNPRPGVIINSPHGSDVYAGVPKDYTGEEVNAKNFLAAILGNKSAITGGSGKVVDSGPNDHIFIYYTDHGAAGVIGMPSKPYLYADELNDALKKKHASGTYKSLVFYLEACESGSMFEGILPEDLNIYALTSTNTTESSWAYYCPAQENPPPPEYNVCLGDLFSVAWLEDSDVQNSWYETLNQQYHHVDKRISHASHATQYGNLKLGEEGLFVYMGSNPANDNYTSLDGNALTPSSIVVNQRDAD
Protocol: Peptide cyclization assay: The peptide used for cyclization assay was purchased commercially from GenScript, NH2-GLPVSTKPVATRNAL-COOH (SEQ ID NO:17). Cyclization assays were performed in 50 μl reaction mixtures containing 20 mM phosphate buffer, pH 6.5, ligases (40 nM) and peptide substrates (20 μM). Reaction was performed at 37° C., for 1 hour. The cyclization product was analyzed by MALDI-TOF MS (ABI 4800 MALDI TOF/TOF).
To evaluate the cyclization activity of the purified OaAEP1b-C247A-Δ351, the enzyme was tested against a linear NH2-GLPVSTKPVATRNAL-COOH (SEQ ID NO:17) peptide substrate (labelled “LS”) (FIG. 6A). The cyclization reaction was performed at 37° C., and samples were collected every two minutes. MALDI-TOF MS was subsequently utilized to detect a cyclized product (labelled “CP”). Successful cyclization carried out by the active ligase of the LS with a mass of 1524 Da would result in CP with a mass of 1321 Da (FIG. 6A). After twelve minutes of reaction time, OaAEP1b-C247A-Δ351 had converted the majority of the linear substrate to the circularized product. No LS peak could be detected compared to a high CP peak detected in the MALDI-TOF mass spectra of the reaction mixture.

TrmJ-NAL = test: Conjugation of TrmJ with a fluorescent peptide (SDS PAGE); type: biochemical; conditions: 200 nM enzyme, 37° C., after an hour of reaction time
Protocol: Conjugation of TrmJ: A concentration of 200 nM of OaAEP1b-C247A-4351 was used to conjugate 10 μM of TrmJ-NAL with 50 μM of a short fluorescence peptide synthesized by Genscript: GIGGIYRK-FITC (SEQ ID NO:21). This reaction was carried out in a 20 mM NaH2PO4, pH 6.5 at 37° C. for 1 hour with a final volume of 500 μL. A volume of 50 µL of the reaction was mixed with 5×SDS loading dye after 5, 10, 20, 30 and 60 minutes. The amount of conjugated TrmJ-NAL at all time points was then analyzed using SDS PAGE.
To evaluate OaAEP1b-C247A-Δ351 conjugation capability, a protein of 20 kDa, tRNA methyltransferase, TrmJ were conjugated. TrmJ was modified to include the C-terminal OaAEP1b-C247A-Δ351 preferred tripeptide recognition motif (Asn-Ala-Leu). Using 200 nM of OaAEP1b-C247A-Δ351, TrmJ present in the solution was able to conjugate with a short fluorescence peptide consisting of an N-terminal Gly/Ile (GIGGIYRK-FITC) (SEQ ID NO: 21). The conjugation rate at 37° C. was analyzed using SDS PAGE at […] different time points.

[2] = Storage stability of the purified enzyme; type: physicochemical; conditions: −80° C.
Protocol: Refolding and purification of constitutively active OaAEP1b-C247A-4351 using dialysis method: With all steps performed at 4° C., protein purification was achieved by resuspending thawed pellets in 30 mL of lysis buffer (100 mM Bis-Tris, pH 6.5, 500 mM NaCl, 10% (v/v) glycerol), sonicating the pellets followed by clearing the lysates by centrifugation at 58,000 g for 45 min. The insoluble fraction was resolubilized in 10 mL of resolubilizing buffer (50 mM Bis-Tris, pH 6.5, 150 mM NaCl, 1 mM EDTA, 50 mM Glycine, 8 M urea) overnight, with agitation. The concentration of denatured protein was determined using nanodrop and diluted to ˜2 mg mL-1 with buffer 1 (50 mM Bis-Tris, pH 6.5, 150 mM NaCl, 500 mM L-Arginine, 1 M urea, 0.25 mM L-Glutathione oxidized, 2.5 mM L-Glutathione reduced). The diluted denatured protein was dialyzed against buffer 2 (50 mM Bis-Tris, pH 6.5, 150 mM NaCl, 200 mM L-Arginine, 0.125 mM L-Glutathione oxidized, 1.25 mM L-Glutathione reduced) for 8 hr, followed by two buffer exchanges with buffer 3 (20 mM Bis-Tris, pH 6.5, 150 mM NaCl), for a duration of 8 hr for each buffer exchange. The refolded proteins were purified by affinity chromatography (HisTrap column, Cytiva), followed by size exclusion chromatography (HiLoad 16/600 Superdex 200, Cytiva). The proteins eluted as monomers during size exclusion purification. […]

B1: OaAEP1b-C247A-Δ351: truncated OaAEP1b-C247A construct, residues 352-474 deleted, D351 as C-terminus; constitutively active peptide asparaginyl ligase (protein)
chain: GTRWAVLIAGSKGYANYRHQAGVCHAYQILKRGGLKDENIVVFMYDDIAYNESNPRPGVIINSPHGSDVYAGVPKDYTGEEVNAKNFLAAILGNKSAITGGSGKVVDSGPNDHIFIYYTDHGAAGVIGMPSKPYLYADELNDALKKKHASGTYKSLVFYLEACESGSMFEGILPEDLNIYALTSTNTTESSWCYYCPAQENPPPPEYNVCLGDLFSVAWLEDSDVQNSWYETLNQQYHHVDKRISHASHATQYGNLKLGEEGLFVYMGSNPANDNYTSLDGNALTPSSIVVNQRDAD
In the case of B1, the “fraction of the measured protein concentration that is active and amenable to complete inhibition” value (OaAEP1b-C247A-Δ351) is reported as “about 53%”, the “cyclization of linear substrate to cyclized product” value [1] is reported as “complete cyclization reaction” and the “conjugation of TrmJ with GIGGIYRK-FITC” value (TrmJ-NAL) is reported as “most of TrmJ was labelled with FITC”. The storage stability [2] was “up to two years”.
